Measured values published in patent publication EP4538286A1 (Adlai Nortye Biopharma Co., Ltd., dated 2025).
Substitutions are numbered along the chain they refer to. In names and notes the source's numbering stands.

T1: human CTLA4 protein (human, UniProt P16410 37-162, limits assumed)
T1 construct: bought protein coated on the ELISA plate; also called human CTLA4 antigen
T1 sequence (looked up): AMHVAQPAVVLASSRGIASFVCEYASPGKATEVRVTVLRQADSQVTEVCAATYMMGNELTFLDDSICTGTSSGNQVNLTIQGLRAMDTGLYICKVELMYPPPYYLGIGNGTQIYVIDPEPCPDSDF

B1: Abs-353 (other)
heavy: VIHVTKEVKEVATLSCGHNVSVEELAQTRIYWQKNKKMVLTMMSGDMNIWPEYKNRTIFDITNNLSIVILELRPSDEGTYECVVLKYEKDAFKREHLAEVTLSVKADGGGGSGGGGSGGGGSGGGGSGEVQLLESGGGLVQPGGSLRLSCAASGFTFSSYAMSWVRQAPGKGLEWVSGISGSGGFTYYADSVKGRFTISRDNSKNTLYLQMNSLRAEDTAVYYCAKPPRGYNYGPFDYWGQGTLVTVSSASTKGPSVFPLAPCSRSTSESTAALGCLVKDYFPEPVTVSWNSGALTSGVHTFPAVLQSSGLYSLSSVVTVPSSSLGTKTYTCNVDHKPSNTKVDKRVESKYGPPCPPCPAPEFLGGPSVFLFPPKPKDTLMISRTPEVTCVVVDVSQEDPEVQFNWYVDGVEVHNAKTKPREEQFNSTYRVVSVLAVLHQDWLNGKEYKCKVSNKGLPSSIEKTISKAKGQPREPQVYTLPPSQEEMTKNQVSLTCLVKGFYPSDIAVAWESNGQPENNYKTTPPVLDSDGSFFLYSRLTVDKSRWQEGNVFSCSVMHEALHAHYTQKSLSLSLGK
light: SYVLTQPPSVSVAPGQTARITCGGNNIGSKSVHWYQQKPGQAPVLVVYDDSDRPSGIPERFSGSNSGNTATLTISRVEAGDEADYYCQVWDSSSDHVVFGGGTKLTVLGQPKAAPSVTLFPPSSEELQANKATLVCLISDFYPGAVTVAWKADSSPVKAGVETTTPSKQSNNKYAASSYLSLTPEQWKSHRSYSCQVTHEGSTVEKTVAPTECS
notes: CD80 IgV mutant fused to the N-terminus of the sugemalimab heavy chain; also called CD80 IgV mutant E35N/A71E-sugemalimab fusion
B2: Abs-273 (other)
heavy: B1 heavy with N35E, M47K, I69Y, V83L
light: B1 light
notes: CD80 IgV mutant fused to the N-terminus of the sugemalimab heavy chain; also called CD80 IgV mutant M47K/I69Y/A71E/V83L-sugemalimab fusion
B3: Abs-354 (other)
heavy: B1 heavy with E71N
light: B1 light
notes: CD80 IgV mutant fused to the N-terminus of the sugemalimab heavy chain; also called CD80 IgV mutant E35N/A71N-sugemalimab fusion
B4: Abs-260 (other)
heavy: B1 heavy with A26M, N35E, L85D
light: B1 light
notes: the paragraph that names the antibody is followed; also called CD80 IgV mutant A26M/A71E/L85D-sugemalimab fusion
B5: Abs-263 (other)
heavy: B1 heavy with N35E, I69L, V83L
light: B1 light
notes: the paragraph that names the antibody is followed; also called CD80 IgV mutant I69L/A71E/V83L-sugemalimab fusion
B6: Abs-355 (other)
heavy: B1 heavy with E71Q
light: B1 light
notes: CD80 IgV mutant fused to the N-terminus of the sugemalimab heavy chain; also called CD80 IgV mutant E35N/A71Q-sugemalimab fusion
B7: Abs-272 (other)
heavy: B1 heavy with N35E, M47Q, I69Y, V83L
light: B1 light
notes: CD80 IgV mutant fused to the N-terminus of the sugemalimab heavy chain; also called CD80 IgV mutant M47Q/I69Y/A71E/V83L-sugemalimab fusion
B8: Abs-271 (other)
heavy: B1 heavy with N35E, M47H, I69Y, V83L
light: B1 light
notes: CD80 IgV mutant fused to the N-terminus of the sugemalimab heavy chain; also called CD80 IgV mutant M47H/I69Y/A71E/V83L-sugemalimab fusion
B9: Abs-366 (other)
heavy: B1 heavy with N35T, E71N
light: B1 light
notes: CD80 IgV mutant fused to the N-terminus of the sugemalimab heavy chain; also called CD80 IgV mutant E35T/A71N-sugemalimab fusion
B10: Abs-264 (other)
heavy: B1 heavy with H18W, A26V, L85N
light: B1 light
notes: the paragraph that names the antibody is followed; also called CD80 IgV mutant H18W/A26V/E35N/A71E/L85N-sugemalimab fusion
B11: Abs-99 (other)
heavy: B1 heavy with N35E, E71A
light: B1 light
notes: CD80 IgV fused to the N-terminus of the heavy chain of the anti-PD-L1 antibody sugemalimab; also called wild type Abs-99; wild-type CD80 IgV-sugemalimab fusion polypeptide complex
B12: Abs-270 (other)
heavy: B1 heavy with T13K, N35E, M42T
light: B1 light
notes: CD80 IgV mutant fused to the N-terminus of the sugemalimab heavy chain; also called CD80 IgV mutant T13K/M42T/A71E-sugemalimab fusion
B13: Abs-262 (other)
heavy: B1 heavy with A26C, N35E, L85N
light: B1 light
notes: the paragraph that names the antibody is followed; also called CD80 IgV mutant A26C/A71E/L85N-sugemalimab fusion
B14: Abs-256 (other)
heavy: B1 heavy with H18W, A26M, N35E, L85D
light: B1 light
notes: the paragraph that names the antibody is followed; also called CD80 IgV mutant H18W/A26M/A71E/L85D-sugemalimab fusion
B15: Abs-257 (other)
heavy: B1 heavy with H18W, A26C, N35E, L85N
light: B1 light
notes: the paragraph that names the antibody is followed; also called CD80 IgV mutant H18W/A26C/A71E/L85N-sugemalimab fusion
B16: Abs-267 (other)
heavy: B1 heavy with T13K, N35E, M42L
light: B1 light
notes: the paragraph that names the antibody is followed; also called CD80 IgV mutant T13K/M42L/A71E-sugemalimab fusion
B17: Abs-266 (other)
heavy: B1 heavy with T13K, N35E, M42L, M47Q
light: B1 light
notes: the paragraph that names the antibody is followed; also called CD80 IgV mutant T13K/M42L/M47Q/A71E-sugemalimab fusion
B18: Abs-265 (other)
heavy: B1 heavy with T13K, N35E, M42L, M47H
light: B1 light
notes: the paragraph that names the antibody is followed; also called CD80 IgV mutant T13K/M42L/M47H/A71E-sugemalimab fusion
B19: Abs-268 (other)
heavy: B1 heavy with T13K, N35E, M42T, M47H
light: B1 light
notes: the paragraph that names the antibody is followed; also called CD80 IgV mutant T13K/M42T/M47H/A71E-sugemalimab fusion
B20: Abs-356 (other)
heavy: B1 heavy with E71T
light: B1 light
notes: CD80 IgV mutant fused to the N-terminus of the sugemalimab heavy chain; also called CD80 IgV mutant E35N/A71T-sugemalimab fusion

How the values were obtained:
[1] = target: PD-L1 on TCR activator PD-L1-CHO cells (UniProt Q9NZQ7 19-290, limits assumed); assay: cell-based or functional assay
Chain of PD-L1 on TCR activator PD-L1-CHO cells (Q9NZQ7 19-290 limits assumed): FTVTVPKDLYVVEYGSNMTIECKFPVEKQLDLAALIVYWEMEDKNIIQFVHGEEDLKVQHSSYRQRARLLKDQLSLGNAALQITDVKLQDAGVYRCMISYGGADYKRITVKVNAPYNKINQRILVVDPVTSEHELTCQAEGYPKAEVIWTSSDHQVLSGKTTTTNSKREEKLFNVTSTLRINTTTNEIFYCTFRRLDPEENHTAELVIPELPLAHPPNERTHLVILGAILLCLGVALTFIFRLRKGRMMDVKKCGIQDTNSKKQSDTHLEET

[2] = target: T2, human CD28 protein (human, UniProt P10747 19-152); assay: ELISA, plate-coated human CD28; parameters: binding strength @ 100nM: reference not given here
T2 construct: bought protein coated on the ELISA plate; also called human CD28 antigen
T2 sequence (P10747 19-152 limits assumed): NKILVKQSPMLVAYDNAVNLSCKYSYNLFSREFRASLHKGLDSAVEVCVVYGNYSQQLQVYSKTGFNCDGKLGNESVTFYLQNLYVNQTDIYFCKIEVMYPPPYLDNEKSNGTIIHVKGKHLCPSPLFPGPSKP

[3] = target: T1, human CTLA4 protein; assay: ELISA, plate-coated human CTLA4

Binder	EC50(nM), Jurkat-NFAT-Luc/CHO-PDL1 [1]	The highest induction relative to 10 nM sugemalimab [1]	EC50 [2]	binding strength @ 100nM [2]	EC50 [3]	binding strength @ 20nM [3]	binding result [2]	binding result [3]
B1	0.48 nM	1130%	25 nM	1450%	0.128 nM	2490%		
B2							no binding	no binding
B3	0.25 nM	1610%	22.1 nM	6300%	0.124 nM	3010%		
B4	0.65 nM	128%					no binding	no binding
B5			26.1 nM	333%				no binding
B6	0.56 nM	1110%	26.8 nM	530%	0.236 nM	3420%		
B7							no binding	no binding
B8							no binding	no binding
B9							no binding	no binding
B10	0.82 nM	154%					no binding	no binding
B11	0.28 nM	215%	27.9 nM	283%	24.4 nM	1200%		
B12							no binding	no binding
B13							no binding	no binding
B14	0.87 nM	133%					no binding	no binding
B15	0.82 nM	122%					no binding	no binding
B16					13.7 nM	1920%	no binding	
B17							no binding	no binding
B18							no binding	no binding
B19							no binding	no binding
B20	0.9 nM	441%	27.8 nM	733%	18.5 nM	1670%		
